Data: patent US8084418B2

Target: XptA2wi (Xenorhabdus nematophilus str Xwi)

Substance XptB1xb + XptC1xb has a dead corn earworm larvae of 8 (pDAB6026 lysate + purified XptA2wi) (dead insects (of 8)) of 8.
